In the data set the test system is Escherichia coli TOP10. As to the kind of experiment: shrunken log2 fold change of peptide-encoding DNA abundance (4.5 h post-induction vs induction); higher = less antimicrobial activity (less host growth inhibition). The note with it: time post-induction: 4.5 h; library: site-saturation at positions 5, 18, 19, 20.
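Further: peptides expressed intracellularly from a pBAD plasmid library in pooled LB shake-flask culture, induced with 0.3% L-arabinose, DNA abundance read by NGS, three biological replicates, DESeq2 with apeglm shrinkage.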

For the sequence RRIRKRPPRLPRPRPRPFAPPRP, the “shrunken log2 fold change” value was found to be 0.792.

Regarding RRIRERPPRLPRPRPRPYGQPRP, the “shrunken log2 fold change” value was -0.315.

Take RRIRQRPPRLPRPRPRPQDVPRP: the “shrunken log2 fold change” value was -0.0199.

In the case of RRIRVRPPRLPRPRPRPEVWPRP, the “shrunken log2 fold change” value came out at 0.405.

As to RRIRSRPPRLPRPRPRPFARPRP, the “shrunken log2 fold change” value was -0.172.

As for RRIRKRPPRLPRPRPRPSEQPRP, the “shrunken log2 fold change” value came out at 0.0244.

RRIRTRPPRLPRPRPRPKELPRP: the “shrunken log2 fold change” value amounted to 0.16.

On to RRIRPRPPRLPRPRPRPSRCPRP, for which the “shrunken log2 fold change” value worked out at 0.093.

Take RRIRMRPPRLPRPRPRPVDMPRP: the “shrunken log2 fold change” value worked out at 0.185.

As to RRIRYRPPRLPRPRPRPSKSPRP, the “shrunken log2 fold change” value is -0.257.

With RRIRDRPPRLPRPRPRPNWSPRP, the “shrunken log2 fold change” value is -0.0955.

As for RRIRSRPPRLPRPRPRPNQKPRP, the “shrunken log2 fold change” value was -0.162.

Consider RRIRYRPPRLPRPRPRPQVVPRP, for which the “shrunken log2 fold change” value is -0.166.

As for RRIRHRPPRLPRPRPRPSLIPRP, the “shrunken log2 fold change” value amounted to 0.954.

For RRIRYRPPRLPRPRPRPVRYPRP, the “shrunken log2 fold change” value is -0.157.

For RRIRDRPPRLPRPRPRPLQEPRP, the “shrunken log2 fold change” value is 0.223.

Regarding RRIRDRPPRLPRPRPRPSCAPRP, the “shrunken log2 fold change” value was -0.0293.

RRIRFRPPRLPRPRPRPKSTPRP: the “shrunken log2 fold change” value was -0.3.

For RRIRVRPPRLPRPRPRPQITPRP, the “shrunken log2 fold change” value is -0.229.

As for RRIRHRPPRLPRPRPRPKIWPRP, the “shrunken log2 fold change” value is -0.0285.

As to RRIRQRPPRLPRPRPRPHLAPRP, the “shrunken log2 fold change” value is -0.0779.

With RRIRWRPPRLPRPRPRPNEKPRP, the “shrunken log2 fold change” value turned out to be 0.0011.

With RRIRIRPPRLPRPRPRPYHRPRP, the “shrunken log2 fold change” value is -0.00133.

As to RRIRKRPPRLPRPRPRPGFDPRP, the “shrunken log2 fold change” value worked out at 0.98.

Take RRIRSRPPRLPRPRPRPLILPRP: the “shrunken log2 fold change” value was -0.628.

RRIRFRPPRLPRPRPRPCFPPRP: the “shrunken log2 fold change” value is -0.407.

Take RRIRQRPPRLPRPRPRPICHPRP: the “shrunken log2 fold change” value was -0.14.

Take RRIRARPPRLPRPRPRPSRMPRP: the “shrunken log2 fold change” value was 0.362.

Regarding RRIRWRPPRLPRPRPRPTYPPRP, the “shrunken log2 fold change” value was -0.553.

Consider RRIRPRPPRLPRPRPRPCAYPRP, for which the “shrunken log2 fold change” value was -0.311.

As to RRIRKRPPRLPRPRPRPHWFPRP, the “shrunken log2 fold change” value was found to be 0.096.

Take RRIRQRPPRLPRPRPRPSLLPRP: the “shrunken log2 fold change” value was -0.216.

As for RRIRGRPPRLPRPRPRPYASPRP, the “shrunken log2 fold change” value amounted to 0.143.

RRIRMRPPRLPRPRPRPIGGPRP: the “shrunken log2 fold change” value is 0.0689.

In the case of RRIRVRPPRLPRPRPRPWMYPRP, the “shrunken log2 fold change” value was -0.225.

In the case of RRIRERPPRLPRPRPRPNHCPRP, the “shrunken log2 fold change” value was -0.0763.

On to RRIRPRPPRLPRPRPRPTCFPRP, for which the “shrunken log2 fold change” value was 0.0572.

As to RRIRDRPPRLPRPRPRPLENPRP, the “shrunken log2 fold change” value was found to be 0.035.

Turning to RRIRTRPPRLPRPRPRPNCIPRP, the “shrunken log2 fold change” value was -0.288.

With RRIRPRPPRLPRPRPRPQLEPRP, the “shrunken log2 fold change” value is 0.376.

For RRIRHRPPRLPRPRPRPLTQPRP, the “shrunken log2 fold change” value is -0.417.

In the case of RRIRERPPRLPRPRPRPTFNPRP, the “shrunken log2 fold change” value was -0.24.

In the case of RRIRWRPPRLPRPRPRPNTFPRP, the “shrunken log2 fold change” value is 2.19.

In the case of RRIRQRPPRLPRPRPRPGIEPRP, the “shrunken log2 fold change” value was -0.113.

In the case of RRIRIRPPRLPRPRPRPHGWPRP, the “shrunken log2 fold change” value worked out at 0.0102.

With RRIRIRPPRLPRPRPRPAYFPRP, the “shrunken log2 fold change” value was -0.411.

For RRIRQRPPRLPRPRPRPSMPPRP, the “shrunken log2 fold change” value is -0.0542.

In the case of RRIRRRPPRLPRPRPRPFVHPRP, the “shrunken log2 fold change” value came to 0.0512.

As for RRIRDRPPRLPRPRPRPNICPRP, the “shrunken log2 fold change” value turned out to be 0.153.

For the sequence RRIRDRPPRLPRPRPRPHKSPRP, the “shrunken log2 fold change” value is -0.17.

In the case of RRIRCRPPRLPRPRPRPLLDPRP, the “shrunken log2 fold change” value was 0.0618.

Regarding RRIRRRPPRLPRPRPRPYVTPRP, the “shrunken log2 fold change” value was -0.383.

For the sequence RRIRSRPPRLPRPRPRPVKMPRP, the “shrunken log2 fold change” value turned out to be 0.0674.

Regarding RRIRERPPRLPRPRPRPCHMPRP, the “shrunken log2 fold change” value was determined as 0.0597.

With RRIRDRPPRLPRPRPRPKWNPRP, the “shrunken log2 fold change” value is -0.159.

Take RRIRLRPPRLPRPRPRPTEGPRP: the “shrunken log2 fold change” value amounted to 0.166.

With RRIRTRPPRLPRPRPRPQSEPRP, the “shrunken log2 fold change” value was -0.141.

With RRIRVRPPRLPRPRPRPAKAPRP, the “shrunken log2 fold change” value was found to be 0.0673.

RRIRVRPPRLPRPRPRPQYKPRP: the “shrunken log2 fold change” value was -0.527.

With RRIRRRPPRLPRPRPRPSWMPRP, the “shrunken log2 fold change” value is -0.324.

On to RRIRTRPPRLPRPRPRPHNKPRP, for which the “shrunken log2 fold change” value was -0.702.

As to RRIRGRPPRLPRPRPRPMDDPRP, the “shrunken log2 fold change” value worked out at 0.994.

In the case of RRIRERPPRLPRPRPRPEWKPRP, the “shrunken log2 fold change” value was determined as 0.0685.

RRIRRRPPRLPRPRPRPRYIPRP: the “shrunken log2 fold change” value was -0.12.

As for RRIRPRPPRLPRPRPRPWYFPRP, the “shrunken log2 fold change” value is -1.02.

For the sequence RRIRGRPPRLPRPRPRPTDEPRP, the “shrunken log2 fold change” value came out at 0.573.

With RRIRSRPPRLPRPRPRPMPMPRP, the “shrunken log2 fold change” value came out at 0.0988.

As to RRIRMRPPRLPRPRPRPTDQPRP, the “shrunken log2 fold change” value was 1.46.

As for RRIRTRPPRLPRPRPRPNWNPRP, the “shrunken log2 fold change” value was -0.335.

Take RRIRARPPRLPRPRPRPKKKPRP: the “shrunken log2 fold change” value came to 0.119.

As for RRIRSRPPRLPRPRPRPIDNPRP, the “shrunken log2 fold change” value was -0.163.

As for RRIRIRPPRLPRPRPRPCILPRP, the “shrunken log2 fold change” value is -0.55.

In the case of RRIRGRPPRLPRPRPRPESHPRP, the “shrunken log2 fold change” value was determined as 0.124.

On to RRIRIRPPRLPRPRPRPLLWPRP, for which the “shrunken log2 fold change” value worked out at 0.0456.

Consider RRIRWRPPRLPRPRPRPQHFPRP, for which the “shrunken log2 fold change” value is 0.418.

RRIRLRPPRLPRPRPRPWVGPRP: the “shrunken log2 fold change” value was 0.233.

As to RRIRMRPPRLPRPRPRPSTYPRP, the “shrunken log2 fold change” value was -0.347.

For RRIRSRPPRLPRPRPRPWVGPRP, the “shrunken log2 fold change” value is -0.452.

For RRIRVRPPRLPRPRPRPYCLPRP, the “shrunken log2 fold change” value was -0.564.

Turning to RRIRFRPPRLPRPRPRPAHSPRP, the “shrunken log2 fold change” value was -0.156.

Take RRIRIRPPRLPRPRPRPVQQPRP: the “shrunken log2 fold change” value was -0.168.

Regarding RRIRIRPPRLPRPRPRPDRSPRP, the “shrunken log2 fold change” value is -0.364.

RRIRQRPPRLPRPRPRPEPMPRP: the “shrunken log2 fold change” value is 0.0452.

As to RRIRPRPPRLPRPRPRPLTRPRP, the “shrunken log2 fold change” value worked out at 0.103.

Take RRIRKRPPRLPRPRPRPNSWPRP: the “shrunken log2 fold change” value was determined as 0.222.

Turning to RRIRGRPPRLPRPRPRPNDNPRP, the “shrunken log2 fold change” value turned out to be 0.19.

Consider RRIRKRPPRLPRPRPRPFNGPRP, for which the “shrunken log2 fold change” value was -0.407.

Turning to RRIRTRPPRLPRPRPRPCITPRP, the “shrunken log2 fold change” value was -0.96.

As for RRIRLRPPRLPRPRPRPQFMPRP, the “shrunken log2 fold change” value was -0.462.

For the sequence RRIRGRPPRLPRPRPRPPQAPRP, the “shrunken log2 fold change” value was 1.58.

Regarding RRIRWRPPRLPRPRPRPIEGPRP, the “shrunken log2 fold change” value is -0.000175.

On to RRIRERPPRLPRPRPRPLDCPRP, for which the “shrunken log2 fold change” value is -0.161.

With RRIRCRPPRLPRPRPRPWVKPRP, the “shrunken log2 fold change” value is -0.352.

For the sequence RRIRDRPPRLPRPRPRPAYAPRP, the “shrunken log2 fold change” value amounted to 0.058.

In the case of RRIRNRPPRLPRPRPRPKDYPRP, the “shrunken log2 fold change” value was -0.232.

Consider RRIRTRPPRLPRPRPRPPVLPRP, for which the “shrunken log2 fold change” value came out at 0.0185.

With RRIRERPPRLPRPRPRPANSPRP, the “shrunken log2 fold change” value was -0.0581.

With RRIRWRPPRLPRPRPRPPEYPRP, the “shrunken log2 fold change” value was found to be 0.539.

In the case of RRIRGRPPRLPRPRPRPQCSPRP, the “shrunken log2 fold change” value is -0.0401.

For RRIRNRPPRLPRPRPRPGSHPRP, the “shrunken log2 fold change” value is -0.291.

As for RRIRYRPPRLPRPRPRPNWKPRP, the “shrunken log2 fold change” value was determined as 0.138.

Consider RRIRFRPPRLPRPRPRPLGPPRP, for which the “shrunken log2 fold change” value amounted to 0.148.

Consider RRIRQRPPRLPRPRPRPLMPPRP, for which the “shrunken log2 fold change” value was -0.0453.

For the sequence RRIRSRPPRLPRPRPRPKTQPRP, the “shrunken log2 fold change” value was -0.0511.

Turning to RRIRMRPPRLPRPRPRPADRPRP, the “shrunken log2 fold change” value is 0.707.

Take RRIRQRPPRLPRPRPRPGVRPRP: the “shrunken log2 fold change” value was -0.0485.

For RRIRSRPPRLPRPRPRPLIMPRP, the “shrunken log2 fold change” value was -0.47.

For RRIRGRPPRLPRPRPRPHHFPRP, the “shrunken log2 fold change” value was -0.0789.

On to RRIRQRPPRLPRPRPRPGQNPRP, for which the “shrunken log2 fold change” value is -0.223.

As for RRIRQRPPRLPRPRPRPFVCPRP, the “shrunken log2 fold change” value is -0.0472.

As for RRIRSRPPRLPRPRPRPSMRPRP, the “shrunken log2 fold change” value came out at 0.369.

Turning to RRIRRRPPRLPRPRPRPMSWPRP, the “shrunken log2 fold change” value stood at 0.0104.

Regarding RRIRHRPPRLPRPRPRPYIVPRP, the “shrunken log2 fold change” value is -0.191.

Regarding RRIRKRPPRLPRPRPRPGEVPRP, the “shrunken log2 fold change” value was determined as 0.268.

Regarding RRIRPRPPRLPRPRPRPQIDPRP, the “shrunken log2 fold change” value was -0.0108.

In the case of RRIRRRPPRLPRPRPRPSYCPRP, the “shrunken log2 fold change” value is -0.0727.

As to RRIRLRPPRLPRPRPRPPVVPRP, the “shrunken log2 fold change” value was 0.218.

For RRIRCRPPRLPRPRPRPNDSPRP, the “shrunken log2 fold change” value is -0.221.

As for RRIRKRPPRLPRPRPRPHHQPRP, the “shrunken log2 fold change” value is 0.00598.

Consider RRIRMRPPRLPRPRPRPALCPRP, for which the “shrunken log2 fold change” value turned out to be 0.221.

On to RRIRLRPPRLPRPRPRPSWCPRP, for which the “shrunken log2 fold change” value is -0.277.

For the sequence RRIRQRPPRLPRPRPRPYRCPRP, the “shrunken log2 fold change” value is -0.122.

Consider RRIRRRPPRLPRPRPRPQDDPRP, for which the “shrunken log2 fold change” value is -0.0295.

In the case of RRIRMRPPRLPRPRPRPALSPRP, the “shrunken log2 fold change” value was 0.539.

Consider RRIRSRPPRLPRPRPRPHIYPRP, for which the “shrunken log2 fold change” value was -0.607.

The values above are taken from the supplement of paper PMC9112550, “Optimization of the antimicrobial peptide Bac7 by deep mutational scanning” (BMC Biology, 2022).
